For 1 substance, Kd results are on record in PMC4130151.

The target in the assay is Fibronectin (UniProt P02751). Put plainly: SPR; BIAcore T100; FN covalently immobilised on CM5 chip; EF-Tu 0-10.0 μM injected in 10 mM HEPES, 150 mM NaCl, 3 mM EDTA, 0.005% P20, pH 7.4, 30 μL/min, 25°C; KD from equilibrium. A general note: Surface plasmon resonance follows binding to a sensor surface in real time, without labels.
Sequence of UniProt P02751 (P02751 32-2477): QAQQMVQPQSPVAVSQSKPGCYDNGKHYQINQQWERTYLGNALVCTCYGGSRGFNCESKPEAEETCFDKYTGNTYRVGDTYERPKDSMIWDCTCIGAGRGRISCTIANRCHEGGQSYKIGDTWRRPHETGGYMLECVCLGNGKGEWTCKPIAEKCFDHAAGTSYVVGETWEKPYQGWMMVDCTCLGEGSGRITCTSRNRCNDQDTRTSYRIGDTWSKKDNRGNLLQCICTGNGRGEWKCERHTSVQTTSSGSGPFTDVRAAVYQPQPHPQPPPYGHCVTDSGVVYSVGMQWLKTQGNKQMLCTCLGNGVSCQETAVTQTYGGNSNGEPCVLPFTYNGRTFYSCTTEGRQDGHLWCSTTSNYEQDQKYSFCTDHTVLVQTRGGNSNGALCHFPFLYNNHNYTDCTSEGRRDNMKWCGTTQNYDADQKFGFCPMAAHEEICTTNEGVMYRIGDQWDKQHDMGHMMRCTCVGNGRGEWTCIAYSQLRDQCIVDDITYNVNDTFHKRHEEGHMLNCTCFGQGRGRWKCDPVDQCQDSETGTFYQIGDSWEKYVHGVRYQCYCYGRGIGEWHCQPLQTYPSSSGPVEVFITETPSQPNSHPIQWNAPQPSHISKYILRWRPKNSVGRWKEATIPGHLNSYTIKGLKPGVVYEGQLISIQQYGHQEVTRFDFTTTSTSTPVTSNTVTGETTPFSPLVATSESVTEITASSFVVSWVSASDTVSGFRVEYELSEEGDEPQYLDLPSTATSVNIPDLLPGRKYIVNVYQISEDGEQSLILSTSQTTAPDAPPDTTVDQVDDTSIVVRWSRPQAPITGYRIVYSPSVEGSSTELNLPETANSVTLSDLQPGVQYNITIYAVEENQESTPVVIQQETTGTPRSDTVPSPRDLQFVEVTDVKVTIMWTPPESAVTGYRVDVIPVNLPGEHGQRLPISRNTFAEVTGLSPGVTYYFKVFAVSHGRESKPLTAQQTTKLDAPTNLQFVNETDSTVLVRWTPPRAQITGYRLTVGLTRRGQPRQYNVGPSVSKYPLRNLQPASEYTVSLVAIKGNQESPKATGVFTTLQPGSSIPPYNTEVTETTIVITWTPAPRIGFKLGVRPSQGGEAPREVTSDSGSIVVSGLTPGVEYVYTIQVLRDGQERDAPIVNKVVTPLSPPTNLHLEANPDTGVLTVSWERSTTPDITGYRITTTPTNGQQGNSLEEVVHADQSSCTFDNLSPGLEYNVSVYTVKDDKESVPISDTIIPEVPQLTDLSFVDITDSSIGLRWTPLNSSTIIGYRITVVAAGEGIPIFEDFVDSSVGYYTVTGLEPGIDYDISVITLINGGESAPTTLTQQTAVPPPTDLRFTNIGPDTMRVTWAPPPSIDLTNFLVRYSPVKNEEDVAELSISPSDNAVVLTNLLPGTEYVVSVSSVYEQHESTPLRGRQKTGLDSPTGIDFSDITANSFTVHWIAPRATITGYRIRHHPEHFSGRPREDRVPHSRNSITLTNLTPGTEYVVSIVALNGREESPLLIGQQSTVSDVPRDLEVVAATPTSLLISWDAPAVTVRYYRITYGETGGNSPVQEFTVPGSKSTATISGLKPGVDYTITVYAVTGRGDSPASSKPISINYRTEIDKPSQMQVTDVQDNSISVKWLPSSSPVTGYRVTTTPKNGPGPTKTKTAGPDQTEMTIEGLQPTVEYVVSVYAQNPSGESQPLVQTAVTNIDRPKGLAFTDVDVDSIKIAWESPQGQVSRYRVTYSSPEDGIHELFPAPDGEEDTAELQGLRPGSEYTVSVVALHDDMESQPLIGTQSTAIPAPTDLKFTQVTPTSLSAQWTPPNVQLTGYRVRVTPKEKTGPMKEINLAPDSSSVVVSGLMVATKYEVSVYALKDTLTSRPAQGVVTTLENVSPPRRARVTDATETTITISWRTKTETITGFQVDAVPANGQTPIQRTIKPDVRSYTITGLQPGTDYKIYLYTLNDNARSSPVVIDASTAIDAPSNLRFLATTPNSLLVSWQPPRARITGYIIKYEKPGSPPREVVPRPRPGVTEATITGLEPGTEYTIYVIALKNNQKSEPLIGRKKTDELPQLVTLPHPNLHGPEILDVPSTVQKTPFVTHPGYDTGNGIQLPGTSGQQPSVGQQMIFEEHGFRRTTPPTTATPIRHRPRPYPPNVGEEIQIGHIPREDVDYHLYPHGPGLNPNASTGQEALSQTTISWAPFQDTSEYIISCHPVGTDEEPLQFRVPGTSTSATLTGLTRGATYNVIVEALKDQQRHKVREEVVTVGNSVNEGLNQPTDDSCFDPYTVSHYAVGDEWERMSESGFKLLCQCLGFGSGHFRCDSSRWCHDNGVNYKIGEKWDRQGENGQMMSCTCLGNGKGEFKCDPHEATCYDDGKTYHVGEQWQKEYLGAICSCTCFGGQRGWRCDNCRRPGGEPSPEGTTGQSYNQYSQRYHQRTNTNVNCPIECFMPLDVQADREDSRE

Consider “Mycobacterium avium subsp. paratuberculosis elongation factor Tu (from UniProt Q73SD1 1-396) (natural protein)”, for which the Kd – broadly, the free concentration of one partner at which half of the binding sites on the other are occupied at equilibrium, for simple one-to-one binding – was found to be 3.1 µM.
